Literature values, collected in US7557183B2, “Polyethylene glycol linked GLP-1 compounds” (Eli Lilly and Company, priority 2003, dated 2009).

Conditions: in vivo

## GLP-1(7-37): native truncated GLP-1 peptide, SEQ ID NO: 1
  serum half-life: 3 to 5 min
